The test system of assay [1] is untransfected CHO-K1 cells. The assay is described as follows: cAMP assay in untransfected CHO-K1 cells. The assay is classed as cell-based. The settings on record: vodo-C1 30 µM; CP55940 and 2-AG 10 µM and 1 µM, alone or with 10 μM vBCL1-4. For orientation: cAMP levels reflect the balance of adenylyl cyclase and phosphodiesterase activity.
The target in assay [2] is T1, CB2R (Homo sapiens, UniProt P34972). The assay is classed as cell-based.
In assay [3] the target is T1, CB2R. The assay is described as follows: cell-based. The format is cell-based. The settings on record: for decrease of efficacy of 2-AG to recruit β-arrestin-2 / decrease of efficacy of CP55940 to recruit β-arrestin-2: single point, peptide 10 μM; for decrease of efficacy of 2-AG to recruit β-arrestin-2: 2-AG 1 μM; for decrease of efficacy of CP55940 to recruit β-arrestin-2: CP55940 1 μM.

For assay [4], the target named is T1, CB2R. The assay is described as follows: cAMP assay. The settings on record: varying concentrations, inverse agonist control. The assay is classed as cell-based.
For assay [5], the target named is T1, CB2R. The assay is described as follows: cAMP assay in the absence of forskolin. The assay is classed as cell-based. The settings on record: 10 µM peptide with varying CP55940, no forskolin.
The target of assay [6] is T1, CB2R. The assay is described as follows: Radioligand displacement of [3H]-CP55940 at human CB2R membrane preparations. The assay is classed as binding. The settings on record: peptide 100 nM and 10 μM; [3H]-CP55940 0.5 nM mixed with cold CP55940 4.5 nM. Background: Loss of bound radioactivity is the signal in a displacement assay; it reports binding, not function.

Where two headings read alike, the source gives them in different places. Bridges are numbered along the chain shown (N, C = ends). Where no end group is shown, it is not given here.

T1 sequence (P34972 whole entry): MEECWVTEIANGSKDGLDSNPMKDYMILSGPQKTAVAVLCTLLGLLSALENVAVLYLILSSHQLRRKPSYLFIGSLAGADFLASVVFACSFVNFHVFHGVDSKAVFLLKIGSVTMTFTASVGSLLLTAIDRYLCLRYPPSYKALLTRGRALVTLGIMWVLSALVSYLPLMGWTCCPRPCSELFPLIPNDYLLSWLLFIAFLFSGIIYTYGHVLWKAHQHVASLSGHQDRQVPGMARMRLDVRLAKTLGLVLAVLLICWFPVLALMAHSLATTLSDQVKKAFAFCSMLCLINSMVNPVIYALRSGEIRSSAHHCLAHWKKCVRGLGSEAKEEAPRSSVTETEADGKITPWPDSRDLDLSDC

Usually EC50 stands for the midpoint of the concentration-response curve. High values mean weaker potency, low ones greater potency. In the case of `CCCCC/C=C\C/C=C\C/C=C\C/C=C\CCCC(=O)OC(CO)CO` [2-AG, 2-arachidonoylglycerol, reference compound], in assay [1], the “changes in cAMP levels in untransfected cells” value was “no changes in cAMP levels”. The EC50 came out at 480 nM in assay [2] (EC50 of agonist alone, agonist alone) and 600 nM in assay [3].
As to `CCCCCCC(C)(C)c1ccc([C@@H]2C[C@H](O)CC[C@H]2CCCO)c(O)c1` [CP55940], the “changes in cAMP levels in untransfected cells” value in assay [1] is reported as “no changes in cAMP levels”.
With SR144528, the “effect on basal levels of CB2R activity” value in assay [4] is given as “reduced the basal levels of CB2R activity”.
Turning to “vBCL1: vodo-C1-inspired bicyclic loop peptide, loops 1 and 2, 10 residues, cyclized with 1,3,5-tris-(bromomethyl)-benzene (CGETCFTGKC; linker 1-5-10 via 1,3,5‑tris‑(bromomethyl)‑benzene (inferred))”, in assay [2] (10 μM peptide), the “EC50 fold shift relative to 2-AG” value was ~6 fold and the “EC50 fold shift relative to WIN55,212-2” value is ~6 fold. Moreover, in assay [3], the “decrease of efficacy of 2-AG to recruit β-arrestin-2” value is given as “no or only minor (not significant) changes” and the “decrease of efficacy of CP55940 to recruit β-arrestin-2” value was “no or only minor (not significant) changes”.
Take “vBCL3: vodo-C1-inspired bicyclic loop peptide, loops 5 and 6, 15 residues, cyclized with 1,3,5-tris-(bromomethyl)-benzene (CEWPICTKNGDPLPC; linker 1-6-15 via 1,3,5‑tris‑(bromomethyl)‑benzene (inferred))”: in assay [5], the “intrinsic inverse agonist activity” value is on record as “lacks intrinsic inverse agonist activity”. In assay [6], the “binding to the receptor (two-point displacement)” value is listed as “did not bind to the receptor”. Also, in assay [2] (10 μM peptide), the “EC50 fold shift relative to 2-AG” value is on record as ~6 fold, the “EC50 fold shift relative to WIN55,212-2” value is reported as ~6 fold, the “decrease of the efficacy of CP55940” value is recorded as ~40% and the “effect on basal activity (WIN55,212-2 curve)” value was “reduced the basal activity”. The “effect on basal response (CP55940 curve)” value in assay [2] (10 μM peptide) is “reduction in basal response”. For the same molecule, in assay [3], the “decrease of efficacy of 2-AG to recruit β-arrestin-2” value was “no or only minor (not significant) changes” and the “decrease of efficacy of CP55940 to recruit β-arrestin-2” value is given as “no or only minor (not significant) changes”.
